Experiments:
[1] = target: α-2-macroglobulin; assay: FITC-trypsin on α-2-macroglobulin-loaded hydrogel microspots; CCD camera
[2] = target: Ferritin; assay: FITC-trypsin on ferritin-loaded hydrogel microspots (negative control); CCD camera
[3] = test system: T1, insulin receptor fragment (Peptide No. 1, phosphorylated)
T1 sequence: TRNIXQTNYYRK

| Flourescence Intensity (au) [1] [au] | Flourescence Intensity (au) [2] [au] | Substance | loss of fluorescent signal (removal of the phosphate group, detected with anti-phosphotyrosine antibody) [3] |
| --- | --- | --- | --- |
| 800 | 20 | FITC-labeled trypsin (enzyme) |  |
|  |  | Leucocyte Antigene Related (LAR) protein tyrosin phosphatase | the LAR-PTPase selectively removes the phosphate group substantially completely from Peptide No. 1 |

Source: patent publication US20050100951A1
